For 3 molecules, Kd results are on record in publication PMC6051491, “Dynamic structure mediates halophilic adaptation of a DNA polymerase from the deep-sea brines of the Red Sea”.

Test in all cases: SPR; 100 mM NaCl; SPR (Biacore T100, SA chip, steady state): 20 mM Tris-HCl pH 8.8, 10 mM (NH4)2SO4, 0.1% Triton X-100, 100 or 300 mM NaCl; temperature not stated
A general note: In SPR one partner is held on a chip, and binding of the other changes the refractive index at the surface.

One data set deals with T1, KODBR3exo Pol (Thermococcus kodakarensis / BR3 chimera, UniProt P77933 1-130+A0A133VA65:160-367+329-406+767-851+1389-1671, internal_change).
T1 sequence: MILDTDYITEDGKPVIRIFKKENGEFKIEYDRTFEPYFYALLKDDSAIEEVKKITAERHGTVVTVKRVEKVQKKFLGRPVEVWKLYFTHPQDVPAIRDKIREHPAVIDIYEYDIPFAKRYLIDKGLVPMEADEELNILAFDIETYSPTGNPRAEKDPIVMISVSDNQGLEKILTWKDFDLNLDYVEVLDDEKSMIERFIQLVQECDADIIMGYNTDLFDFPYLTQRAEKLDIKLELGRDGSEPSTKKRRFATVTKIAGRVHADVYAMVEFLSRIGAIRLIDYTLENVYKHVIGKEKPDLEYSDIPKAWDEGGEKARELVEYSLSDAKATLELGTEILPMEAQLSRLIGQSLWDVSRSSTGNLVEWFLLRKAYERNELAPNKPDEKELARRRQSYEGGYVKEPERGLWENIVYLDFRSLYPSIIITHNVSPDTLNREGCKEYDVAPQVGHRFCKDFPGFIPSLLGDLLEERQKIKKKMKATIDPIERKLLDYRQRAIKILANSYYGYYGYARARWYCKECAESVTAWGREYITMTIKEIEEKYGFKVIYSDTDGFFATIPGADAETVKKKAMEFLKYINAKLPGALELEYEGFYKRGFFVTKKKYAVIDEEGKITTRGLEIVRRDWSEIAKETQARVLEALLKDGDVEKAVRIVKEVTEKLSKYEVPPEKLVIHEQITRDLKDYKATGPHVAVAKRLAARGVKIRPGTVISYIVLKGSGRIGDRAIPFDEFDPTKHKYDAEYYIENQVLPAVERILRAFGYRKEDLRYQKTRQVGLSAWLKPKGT
The note with it: protein: recombinant; label: 3' biotin on template (immobilized); primer pairs with template 3' end; 5' overhang 23 nt of template.

Another data set has as its target T2, KODBR3thumb Pol (Thermococcus kodakarensis / BR3 chimera, UniProt P77933 1-406+767-851+1389-1479+A0A133VA65:621-805, internal_change).
T2 sequence: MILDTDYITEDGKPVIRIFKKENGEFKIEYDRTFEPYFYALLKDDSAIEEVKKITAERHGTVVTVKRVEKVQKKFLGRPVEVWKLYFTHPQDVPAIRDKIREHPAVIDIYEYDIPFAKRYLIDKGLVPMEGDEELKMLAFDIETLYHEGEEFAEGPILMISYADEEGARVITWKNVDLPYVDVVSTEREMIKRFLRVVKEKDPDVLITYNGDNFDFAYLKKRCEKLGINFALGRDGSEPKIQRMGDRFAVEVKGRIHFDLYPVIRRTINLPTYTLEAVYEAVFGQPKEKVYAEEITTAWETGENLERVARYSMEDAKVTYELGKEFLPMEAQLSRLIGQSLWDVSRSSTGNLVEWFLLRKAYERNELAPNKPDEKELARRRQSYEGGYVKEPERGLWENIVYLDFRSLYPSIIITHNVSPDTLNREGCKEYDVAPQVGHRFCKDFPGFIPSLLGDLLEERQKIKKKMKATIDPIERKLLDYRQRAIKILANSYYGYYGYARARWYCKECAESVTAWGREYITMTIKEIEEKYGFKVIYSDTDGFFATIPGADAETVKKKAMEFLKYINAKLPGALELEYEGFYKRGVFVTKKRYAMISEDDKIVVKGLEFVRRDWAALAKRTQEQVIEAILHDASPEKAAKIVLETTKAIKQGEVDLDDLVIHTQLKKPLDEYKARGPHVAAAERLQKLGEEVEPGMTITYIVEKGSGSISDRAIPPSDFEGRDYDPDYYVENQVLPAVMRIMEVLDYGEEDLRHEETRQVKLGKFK
The note with it: protein: recombinant; label: 3' biotin on template (immobilized); primer pairs with template 3' end; 5' overhang 23 nt of template.

A further data set addresses T3, KOD Pol WT (Thermococcus kodakarensis, UniProt P77933 1-406+767-851+1389-1671, internal_change).
T3 sequence: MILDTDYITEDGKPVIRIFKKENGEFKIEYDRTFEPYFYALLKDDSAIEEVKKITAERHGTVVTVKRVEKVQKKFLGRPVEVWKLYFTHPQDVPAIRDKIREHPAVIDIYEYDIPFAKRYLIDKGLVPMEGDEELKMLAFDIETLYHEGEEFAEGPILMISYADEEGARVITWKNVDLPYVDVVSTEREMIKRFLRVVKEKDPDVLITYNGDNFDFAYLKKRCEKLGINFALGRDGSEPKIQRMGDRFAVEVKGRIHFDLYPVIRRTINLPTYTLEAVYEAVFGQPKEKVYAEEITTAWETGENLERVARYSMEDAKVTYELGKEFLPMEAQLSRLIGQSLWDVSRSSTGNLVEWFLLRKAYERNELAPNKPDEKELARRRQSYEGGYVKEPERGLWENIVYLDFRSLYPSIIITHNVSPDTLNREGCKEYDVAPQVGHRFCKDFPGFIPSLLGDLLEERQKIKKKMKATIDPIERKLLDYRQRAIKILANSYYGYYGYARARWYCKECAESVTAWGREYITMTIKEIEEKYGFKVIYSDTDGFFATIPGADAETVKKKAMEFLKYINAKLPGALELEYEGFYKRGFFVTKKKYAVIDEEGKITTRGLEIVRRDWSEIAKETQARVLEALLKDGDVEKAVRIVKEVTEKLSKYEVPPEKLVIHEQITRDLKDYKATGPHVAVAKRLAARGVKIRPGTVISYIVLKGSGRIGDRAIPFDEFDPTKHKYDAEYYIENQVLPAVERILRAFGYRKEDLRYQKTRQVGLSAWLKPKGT
The note with it: protein: recombinant, tags: N-terminal His.

B1: primer/template (mixed)
DNA 1: GAGGTGGCGTCGGGTGGACGGGTGGATTGAAATTTAGGCTGGCAC
DNA 2: GTGCCAGCCTAAATTTCAATCC
For the molecule B1, the Kd (usually the free concentration of one partner at which half of the binding sites on the other are occupied at equilibrium, for simple one-to-one binding) in the data set with KODBR3exo Pol worked out at 6.5 nM; with KODBR3thumb Pol, 12.5 nM; with KOD Pol WT (label: 3' biotin on template (immobilized), primer pairs with template 3' end, 5' overhang 23 nt of template), 3.5 nM.

B2: dsDNA (dsDNA)
DNA 1: GAGGTGGCGTCGGGTGGACGGGTGGATTGAAATTTAGGCTGGCAC
DNA 2: GTGCCAGCCTAAATTTCAATCCACCCGTCCACCCGACGCCACCTC
As for B2, the Kd with KOD Pol WT (label: 3' biotin on strand 1 (immobilized), blunt) is 239 nM.

Consider TTTTTTTTTTTTTTTTTTTTTTTTTTTTTTTTTTTTTTTT (ssDNA) [ssDNA], for which, in the data set with KOD Pol WT (label: 5' biotin (immobilized)), the Kd turned out to be 32.8 nM.
